According to US11840563B2, “Methods of treating cancer by administering inhibitory RNA molecules targeting protease serine 2 (PRSS2) expression” (Children's Medical Center Corporation, priority 2017, dated 2023):

Tests used:
[1] = system: Tsp-1; assay: Western blot of Tsp-1 in lung fibroblasts treated with LN4 CM alone or with STI or Rac1 inhibitor; format: cell-based; details: lung fibroblasts (W138 cells), co-treatment with LN4 conditioned media
Excerpt: FIG. 11. Western blot analysis of Tsp-1 and β-actin expression in lung fibroblasts that were untreated (−) or treated with LN4 CM alone or in combination with STI.
FIG. 12. Western blot analysis of Tsp-1 and β-actin expression in lung fibroblasts that were untreated (−) or treated with LN4 CM alone or in combination with Rac1 inhibitor.
Attention was then turned to the mechanism by which PC3M-LN4 cells repress Tsp-1 in the tumor microenvironment. In doing so, LN4 conditioned media (CM) was fractionated over a Cu^2+/heparin sepharose column with increasing concentrations of NaCl. The eluted fractions were used to treat lung fibroblasts and Tsp-1 induction was analyzed by western blot. […] By analyzing the protein content of the eluted fractions by tandem liquid chromatography/mass spectrometry (LC/MS), a protein was identified that was present in the active fractions of LN4 CM, but not present in the adjacent fractions or the fractions eluted with the same NaCl concentrations from PC3 CM. The identified protein was the serine protease PRSS2. […] Finally, the signaling pathway emanating from LRP1 that was mediating the PRSS2-induced repression of Tsp-1 was sought to be delineated. […]

[2] = system: Tsp-1; assay: Western blot of Tsp-1/p53 in prostate fibroblasts treated with PC3 conditioned media with or without RAP or PKC inhibitor; format: cell-based; details: co-treatment with inhibitor
Excerpt: FIGS. 6A-6B. Western blot analysis of: (FIG. 6A) Tsp-1 and β-actin expression in prostate fibroblasts that were untreated (−) or treated with conditioned media from PC3 cells alone or in combination with RAP, and (FIG. 6B) Tsp-1, p53 and β-actin expression in prostate fibroblasts that were untreated (−) or treated with conditioned media from PC3 cells alone or in combination with the PKC inhibitor Go 6983 (PKCi).
Thus, in order to determine how prosaposin was able to stimulate the expression of Tsp-1 and p53 in tumor-associated fibroblasts, prostate fibroblasts were treated with PC3-conditioned media in the presence and absence of Receptor Associate Protein (RAP), a competitive inhibitor or LRP1 binding. […] To determine whether prosaposin-mediated stimulation of Tsp-1 utilized this pathway, fibroblasts were treated with CM from PC3 cells in the presence and absence of the PKC inhibitor Gö 6983. […] Thus, it is believed that Prosaposin functions via binding to LRP1.

[3] = system: Tsp-1; assay: Western blot of Tsp-1 in lung fibroblasts treated with psap peptide alone or with rhRAP or Y27632; format: cell-based; details: co-treatment with peptide, rhRAP 25 or 50 μg
Procedure: FIGS. 8A-8B. Western blot analysis of Tsp-1 and β-actin expression in lung fibroblasts, which were (FIG. 8A) untreated (−) or treated with psap peptide alone or in combination with 25 or 50 μg of rhRAP, and (FIG. 8B) untreated (−) or treated with psap peptide alone or with Y27632.
In order to delineate the pathway leading from LRP1 to Tsp-1 stimulation by prosaposin, two pathways that have been reported to be stimulated by LRP1 under different conditions were chosen to be examined: Rho and Rac.

[4] = target: T1, prosaposin (PSAP) (Homo sapiens, UniProt P07602); assay: Co-immunoprecipitation of LRP1 peptides with PSAP; format: binding
T1 sequence (P07602 60-524): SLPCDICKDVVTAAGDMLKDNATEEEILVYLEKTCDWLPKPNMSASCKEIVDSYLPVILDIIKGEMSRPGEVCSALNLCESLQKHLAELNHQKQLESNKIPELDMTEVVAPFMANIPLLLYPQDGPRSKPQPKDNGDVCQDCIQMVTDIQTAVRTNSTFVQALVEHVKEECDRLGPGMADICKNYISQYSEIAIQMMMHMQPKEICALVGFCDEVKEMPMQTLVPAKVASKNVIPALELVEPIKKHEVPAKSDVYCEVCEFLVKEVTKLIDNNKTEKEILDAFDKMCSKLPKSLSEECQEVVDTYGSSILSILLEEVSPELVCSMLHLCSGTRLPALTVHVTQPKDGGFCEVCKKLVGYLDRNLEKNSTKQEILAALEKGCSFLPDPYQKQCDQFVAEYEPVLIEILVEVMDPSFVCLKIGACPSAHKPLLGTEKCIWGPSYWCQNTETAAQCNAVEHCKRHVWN
Procedure: (§1) FIGS. 16A-16B. Co-immunoprecipitation of LRP1 peptides with PSAP (FIG. 16A) or PRSS2 (FIG. 16B).
(§2) To map the binding sites on LRP1 that binds to prosaposin (PSAP) and/or PRSS2, peptides derived from binding domain I of LRP1 (SEQ ID NOs: 3 and 7-18) were tested for their ability to co-immunoprecipitate with PSAP or PRSS2.

[5] = target: PRSS2 (Homo sapiens, UniProt P07478); assay: Co-immunoprecipitation of LRP1 peptides with PRSS2; format: binding
Procedure: as §1, §2

Sequence of PRSS2 (P07478 16-247 limits assumed): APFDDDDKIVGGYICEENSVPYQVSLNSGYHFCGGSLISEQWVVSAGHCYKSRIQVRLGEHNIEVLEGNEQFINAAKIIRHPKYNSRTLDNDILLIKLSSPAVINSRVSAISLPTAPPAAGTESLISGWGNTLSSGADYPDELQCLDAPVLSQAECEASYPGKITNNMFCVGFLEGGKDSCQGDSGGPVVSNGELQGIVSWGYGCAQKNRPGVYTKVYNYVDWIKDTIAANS

## CCN(CC)CCCC(C)Nc1nc(C)cc(Nc2ccc3nc(C)cc(N)c3c2)n1 (racemic) [Rac1 inhibitor, reference compound]
[1]
  effect on repression of Tsp-1 by LN4 CM: Tsp-1 levels were restored to basal levels

## COc1ccc2c(c1)c(C1=C(c3c[nH]c4ccccc34)C(=O)NC1=O)cn2CCCN(C)C [Gö 6983]
[2]
  stimulation of Tsp-1 by PC3-conditioned media: abolished the stimulation
  stimulation of p53 by PC3-conditioned media: abolished the stimulation

## C[C@@H](N)[C@H]1CC[C@H](C(=O)Nc2ccncc2)CC1 [Peptide Y27632, Y27632, reference compound]
[3]
  effect on stimulation of Tsp-1 by the psap peptide: completely abrogated

## FICGCVEGYLLQPDNRSCKAKN [Peptide 13]
[4]; listed as peptide 13
  binding to PSAP (co-immunoprecipitation): bind to both PRSS2 and PSAP
[5]; listed as peptide 13
  binding to PRSS2 (co-immunoprecipitation): bind to both PRSS2 and PSAP

## YGTCSQLCTNTDGSFICGCVEGYLL [Peptide 12]
[4]; listed as peptide 12
  binding to PSAP (co-immunoprecipitation): bind to both PRSS2 and PSAP
[5]; listed as peptide 12
  binding to PRSS2 (co-immunoprecipitation): bind to both PRSS2 and PSAP

B1: STI: serine protease inhibitor able to inhibit all members of the trypsin family (protein, UniProt P01070 25-205, looked up)
Trypsin inhibitor A: DFVLDNEGNPLENGGTYYILSDITAFGGIRAAPTGNERCPLTVVQSRNELDKGIGTIISSPYRIRFIAEGHPLSLKFDSFAVIMLCVGIPTEWSVVEDLPEGPAVKIGENKDAMDGWFRLERVSDDEFNNYKLVFCPQQAEDDKCGDIGISIDHDDGTRRLVVSKNKPLVVQFQKLDKESL
[1]
  effect on repression of Tsp-1 by LN4 CM: completely abrogated the repression of Tsp-1

B2: RAP: Receptor Associate Protein (RAP), a competitive inhibitor or LRP1 binding (protein, UniProt P30533 35-357, looked up)
Alpha-2-macroglobulin …: YSREKNQPKPSPKRESGEEFRMEKLNQLWEKAQRLHLPPVRLAELHADLKIQERDELAWKKLKLDGLDEDGEKEARLIRNLNVILAKYGLDGKKDARQVTSNSLSGTQEDGLDDPRLEKLWHKAKTSGKFSGEELDKLWREFLHHKEKVHEYNVLLETLSRTEEIHENVISPSDLSDIKGSVLHSRHTELKEKLRSINQGLDRLRRVSHQGYSTEAEFEEPRVIDLWDLAQSANLTDKELEAFREELKHFEAKIEKHNHYQKQLEIAHEKLRHAESVGDGERVSRSREKHALLEGRTKELGYTVKKHLQDLSGRISRARHNEL
[2]
  stimulation of Tsp-1 by PC3-conditioned media: no longer stimulated Tsp-1
[3]
  effect on stimulation of Tsp-1 by the psap peptide: blocked the stimulation of Tsp-1 in a dose-dependent fashion
